Data published in PMC6521718 (Molecular cell, 2018).
Positions count from the first letter of the chain named. Where two headings read alike, the source gives them in different places.

T1: Csy complex Cas8f N250A (Pseudomonas aeruginosa PA14, UniProt Q02ML9;Q02MM0;Q02MM1;Q02MM2 1-434;1-327;1-342;1-187, N250A)
T1 sequence 1: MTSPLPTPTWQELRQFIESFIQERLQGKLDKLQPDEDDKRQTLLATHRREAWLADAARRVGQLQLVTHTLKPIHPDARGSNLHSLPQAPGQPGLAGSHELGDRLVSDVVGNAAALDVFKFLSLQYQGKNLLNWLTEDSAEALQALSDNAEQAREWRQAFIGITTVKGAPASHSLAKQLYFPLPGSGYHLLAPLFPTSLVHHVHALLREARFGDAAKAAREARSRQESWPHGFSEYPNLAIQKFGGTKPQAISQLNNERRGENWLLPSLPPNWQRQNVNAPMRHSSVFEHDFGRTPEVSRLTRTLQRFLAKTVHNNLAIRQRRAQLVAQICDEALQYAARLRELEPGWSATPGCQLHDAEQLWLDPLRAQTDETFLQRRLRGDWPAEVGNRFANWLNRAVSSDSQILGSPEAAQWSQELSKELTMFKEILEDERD
T1 sequence 2: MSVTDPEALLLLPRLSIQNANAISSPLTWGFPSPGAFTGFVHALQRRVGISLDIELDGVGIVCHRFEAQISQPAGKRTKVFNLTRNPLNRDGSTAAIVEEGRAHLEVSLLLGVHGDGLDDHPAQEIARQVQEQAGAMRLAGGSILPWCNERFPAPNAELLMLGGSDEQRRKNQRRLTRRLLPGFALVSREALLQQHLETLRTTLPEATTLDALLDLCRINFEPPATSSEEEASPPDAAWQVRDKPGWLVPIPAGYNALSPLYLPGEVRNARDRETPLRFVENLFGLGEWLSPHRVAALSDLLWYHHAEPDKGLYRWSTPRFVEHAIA
T1 sequence 3: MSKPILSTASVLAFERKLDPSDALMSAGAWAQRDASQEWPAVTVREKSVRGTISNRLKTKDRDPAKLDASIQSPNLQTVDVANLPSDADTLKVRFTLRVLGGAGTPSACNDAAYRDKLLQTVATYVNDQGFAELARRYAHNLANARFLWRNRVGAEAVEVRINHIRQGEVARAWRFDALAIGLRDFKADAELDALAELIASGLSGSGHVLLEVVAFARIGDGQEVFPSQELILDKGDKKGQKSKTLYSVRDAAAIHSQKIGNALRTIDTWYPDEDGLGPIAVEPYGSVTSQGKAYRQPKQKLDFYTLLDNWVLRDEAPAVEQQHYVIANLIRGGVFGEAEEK
T1 sequence 4: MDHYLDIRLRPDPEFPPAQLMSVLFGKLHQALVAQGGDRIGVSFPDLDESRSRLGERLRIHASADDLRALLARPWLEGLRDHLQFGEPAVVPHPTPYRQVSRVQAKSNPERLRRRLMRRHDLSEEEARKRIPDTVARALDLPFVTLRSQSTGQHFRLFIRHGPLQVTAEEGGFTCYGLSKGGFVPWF

T2: Csy complex (type I-F, wild type) (Pseudomonas aeruginosa PA14, UniProt Q02ML9;Q02MM0;Q02MM1;Q02MM2 1-434;1-327;1-342;1-187)
T2 sequence 1: T1 sequence 1 with A250N
T2 sequence 2: T1 sequence 2
T2 sequence 3: T1 sequence 3
T2 sequence 4: T1 sequence 4

T3: Csy complex Cas8f RBC mutant (Pseudomonas aeruginosa PA14, UniProt Q02ML9;Q02MM0;Q02MM1;Q02MM2 1-434;1-327;1-342;1-187, R282E;H283D;R299E;R302E)
T3 sequence 1: T1 sequence 1 with A250N, R282E, H283D, R299E, R302E
T3 sequence 2: T1 sequence 2
T3 sequence 3: T1 sequence 3
T3 sequence 4: T1 sequence 4

B1: 80-bp dsDNA target, GG PAM (dsDNA)
DNA 1: GCTGTACGTCACTATCGAAGCAATACAGGTAGACGCGGACATCAAGCCCGCCGTGAAGGTGCAGCTTCTCTACAGAGTGC
DNA 2: GCACTCTGTAGAGAAGCTGCACCTTCACGGCGGGCTTGATGTCCGCGTCTACCTGTATTGCTTCGATAGTGACGTACAGC
B2: 80-bp target, AA PAM, bubble +1 to +10 (dsDNA)
DNA 1: B1 DNA 1 with G58A, G59A
DNA 2: GCACTCTGTAGAGAAGCTGCATTAAGTGCCGCCGCTTGATGTCCGCGTCTACCTGTATTGCTTCGATAGTGACGTACAGC
B3: 80-bp target, TT PAM, bubble +1 to +10 (dsDNA)
DNA 1: B1 DNA 1 with G58T, G59T
DNA 2: B2 DNA 2 with T22A, T23A
B4: 80-bp target, CC PAM, bubble +1 to +10 (dsDNA)
DNA 1: B1 DNA 1 with G58C, G59C
DNA 2: B2 DNA 2 with T22G, T23G
B5: 80-bp target, GG PAM, bubble +1 to +10 (dsDNA)
DNA 1: B1 DNA 1
DNA 2: B2 DNA 2 with T22C, T23C
B6: Cas7f, backbone subunit of the Csy complex (natural protein, Pseudomonas aeruginosa (strain PA14))
chain: T1 sequence 3

Legend:
[1] = target: T1, Csy complex Cas8f N250A; test: EMSA
[2] = target: T4, Csy complex (type I-F, wild type);Cas1-2/3 complex (Pseudomonas aeruginosa PA14;Pseudomonas …, UniProt Q02ML9;Q02MM0;Q02MM1;Q02MM2;Q02ML7;Q02ML8 1-434;1-327;1-342;1-187;1-324;1-1076, |); test: EMSA
T4 sequence (Q02ML7 whole entry, chain 5 of 2): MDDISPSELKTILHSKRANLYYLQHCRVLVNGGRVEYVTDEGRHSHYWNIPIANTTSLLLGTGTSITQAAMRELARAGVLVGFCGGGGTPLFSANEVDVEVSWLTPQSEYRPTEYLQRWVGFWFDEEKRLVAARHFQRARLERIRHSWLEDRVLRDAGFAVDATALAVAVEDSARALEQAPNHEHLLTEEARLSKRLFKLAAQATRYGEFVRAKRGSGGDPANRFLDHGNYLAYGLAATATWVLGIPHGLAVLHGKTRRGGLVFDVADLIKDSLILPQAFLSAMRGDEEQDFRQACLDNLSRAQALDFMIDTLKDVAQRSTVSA
T4 sequence (Q02ML8 whole entry, chain 6 of 2): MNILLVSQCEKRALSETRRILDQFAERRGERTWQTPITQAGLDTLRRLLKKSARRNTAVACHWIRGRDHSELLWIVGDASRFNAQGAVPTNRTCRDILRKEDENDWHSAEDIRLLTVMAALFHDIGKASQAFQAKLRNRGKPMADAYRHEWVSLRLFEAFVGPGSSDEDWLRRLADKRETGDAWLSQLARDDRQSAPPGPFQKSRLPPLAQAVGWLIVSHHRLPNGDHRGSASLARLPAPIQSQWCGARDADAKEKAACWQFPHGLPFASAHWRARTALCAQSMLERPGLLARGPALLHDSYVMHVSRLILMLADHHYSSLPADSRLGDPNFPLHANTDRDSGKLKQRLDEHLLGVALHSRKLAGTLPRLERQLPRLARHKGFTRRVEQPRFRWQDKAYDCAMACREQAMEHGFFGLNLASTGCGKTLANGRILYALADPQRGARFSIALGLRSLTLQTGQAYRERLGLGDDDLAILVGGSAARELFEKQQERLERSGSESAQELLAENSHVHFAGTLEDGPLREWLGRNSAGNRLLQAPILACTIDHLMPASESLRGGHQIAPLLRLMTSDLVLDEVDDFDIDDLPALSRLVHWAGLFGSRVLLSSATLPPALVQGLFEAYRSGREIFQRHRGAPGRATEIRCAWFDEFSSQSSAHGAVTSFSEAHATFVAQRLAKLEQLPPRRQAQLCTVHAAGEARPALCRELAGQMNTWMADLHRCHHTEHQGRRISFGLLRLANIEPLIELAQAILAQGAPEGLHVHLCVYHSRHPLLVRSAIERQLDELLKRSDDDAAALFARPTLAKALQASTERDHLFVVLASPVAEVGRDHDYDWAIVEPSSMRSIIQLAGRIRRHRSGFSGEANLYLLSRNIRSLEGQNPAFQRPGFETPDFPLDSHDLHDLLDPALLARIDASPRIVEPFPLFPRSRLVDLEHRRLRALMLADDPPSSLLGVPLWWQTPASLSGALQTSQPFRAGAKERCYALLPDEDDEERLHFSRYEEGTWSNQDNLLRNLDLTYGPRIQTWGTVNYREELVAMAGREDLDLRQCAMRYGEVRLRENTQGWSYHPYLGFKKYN

[3] = target: T2, Csy complex (type I-F, wild type); test: cryo-EM
[4] = target: T4, Csy complex (type I-F, wild …); test: EMSA; remark: listed apart in the source
[5] = target: T2, Csy complex (type I-F, wild type); test: EMSA
[6] = target: T3, Csy complex Cas8f RBC mutant; test: EMSA
[7] = target: the molecule itself; test: cryo-EM structure

Binder	binding result [4]	binding result [5]	also measured
B1			binding signal [1]: > 1000 fold decrease in affinity vs WT; binding result [2]: binds; binding result [3]: binds
B2	binds	binds	
B3	binds	binds	
B4	binds	binds	
B5			binding result [6]: binds
B6			binding result [7]: binds
